Measured values reported in US12371817 (TEXAS A AND M UNIVERSITY SYSTEM, dated 2025).
Numbered stars: 1 amine (or outer) side, 2 acyl side, 3 side chain; on linkers, the order of the positions; unused ones are H or OH. Square brackets hold non-standard residues; d marks the D form. Ends that are not written are not given here. * marks the point of attachment. thBuK = N^ε-thiobutyryl-lysine, CCCC(=S)NCCCC[C@H](N[*:1])C(=O)[*:2]; Crotonyl(E) = C/C=C/C(=O)*; Abu = CC[C@H](N)C(=O)O

Tests used:
[1] = biological target: T1, ENL (UniProt Q03111 1-148, limits assumed); assay: fluorescence polarization, 5-FAM-conjugated peptide binding to ENL
T1 construct: also called ENL protein
T1 sequence (looked up): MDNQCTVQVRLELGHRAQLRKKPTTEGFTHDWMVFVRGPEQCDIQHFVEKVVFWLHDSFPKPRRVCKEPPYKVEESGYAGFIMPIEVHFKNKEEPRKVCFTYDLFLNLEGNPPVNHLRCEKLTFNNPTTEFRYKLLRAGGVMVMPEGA

[2] = biological target: T2, recombinant human sirtuin 2 (His6-SIRT2) (human, UniProt Q8IXJ6 1-389); assay: deacetylase inhibition
T2 chain: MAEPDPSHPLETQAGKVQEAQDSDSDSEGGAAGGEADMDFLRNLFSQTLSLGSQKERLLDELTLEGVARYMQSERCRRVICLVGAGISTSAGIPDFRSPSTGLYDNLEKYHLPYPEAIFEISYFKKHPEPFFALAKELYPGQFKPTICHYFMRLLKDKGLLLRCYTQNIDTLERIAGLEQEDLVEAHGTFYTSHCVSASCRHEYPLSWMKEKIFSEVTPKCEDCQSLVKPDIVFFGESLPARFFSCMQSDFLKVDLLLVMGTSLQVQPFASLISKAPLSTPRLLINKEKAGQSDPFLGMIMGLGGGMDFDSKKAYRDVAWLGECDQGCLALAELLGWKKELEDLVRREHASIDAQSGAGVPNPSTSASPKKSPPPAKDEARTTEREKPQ

[3] = biological target: T3, recombinant human sirtuin 2 (His6-SIRT2) (human, UniProt Q8IXJ6 1-389); assay: cell-based or functional assay
T3 sequence (looked up): T2 chain

[4] = biological target: T4, human sirtuin 1 (His6-SIRT1) (human, UniProt Q96EB6 1-747); assay: cell-based or functional assay
T4 sequence (looked up): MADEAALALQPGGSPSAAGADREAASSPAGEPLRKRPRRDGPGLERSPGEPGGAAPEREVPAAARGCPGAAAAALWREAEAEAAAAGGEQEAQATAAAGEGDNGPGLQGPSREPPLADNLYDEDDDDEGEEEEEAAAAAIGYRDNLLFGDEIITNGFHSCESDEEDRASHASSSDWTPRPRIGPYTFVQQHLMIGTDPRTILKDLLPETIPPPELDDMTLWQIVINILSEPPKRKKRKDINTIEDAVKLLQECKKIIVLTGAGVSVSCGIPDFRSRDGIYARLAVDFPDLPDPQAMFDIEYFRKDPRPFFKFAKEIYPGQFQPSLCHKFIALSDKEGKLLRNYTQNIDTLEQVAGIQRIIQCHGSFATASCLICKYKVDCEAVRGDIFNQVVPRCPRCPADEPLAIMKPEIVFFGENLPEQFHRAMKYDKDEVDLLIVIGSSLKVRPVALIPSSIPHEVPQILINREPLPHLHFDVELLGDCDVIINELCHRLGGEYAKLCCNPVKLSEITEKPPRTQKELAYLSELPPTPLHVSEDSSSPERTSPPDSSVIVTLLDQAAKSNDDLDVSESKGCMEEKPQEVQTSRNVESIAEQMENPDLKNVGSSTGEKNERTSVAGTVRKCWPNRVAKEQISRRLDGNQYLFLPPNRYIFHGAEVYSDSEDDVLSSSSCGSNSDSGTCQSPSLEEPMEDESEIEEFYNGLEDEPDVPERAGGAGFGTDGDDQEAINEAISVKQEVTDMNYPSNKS

[5] = biological target: T5, human sirtuin 3 (GST-SIRT3) (human, UniProt Q9NTG7 102-399); assay: cell-based or functional assay
T5 sequence (looked up): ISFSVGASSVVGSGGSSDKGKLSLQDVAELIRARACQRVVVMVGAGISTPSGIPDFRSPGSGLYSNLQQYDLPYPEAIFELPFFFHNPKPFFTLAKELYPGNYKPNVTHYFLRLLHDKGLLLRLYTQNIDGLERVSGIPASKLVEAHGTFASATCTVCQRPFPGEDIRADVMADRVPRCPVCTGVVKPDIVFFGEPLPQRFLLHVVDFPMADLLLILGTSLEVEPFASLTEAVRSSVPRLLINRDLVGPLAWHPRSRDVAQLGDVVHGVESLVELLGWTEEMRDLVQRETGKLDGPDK

For DIWCFK(Crotonyl(E))G (also: 5-FAM conjugated, site not given here) [5-FAM-conjugated 7CrKEnl1], the Kd [1] was 94 nM.

B1: S2P04 (Abu)-5 (NH2-ZTVXI-NH2, Z is aminobutyric acid) (peptide)
peptide: H-[Abu]TV[thBuK]I-NH2
SMILES: CCCC(=S)NCCCC[C@H](NC(=O)[C@@H](NC(=O)[C@@H](NC(=O)[C@@H](N)CC)[C@@H](C)O)C(C)C)C(=O)N[C@H](C(N)=O)[C@@H](C)CC
Binder B1 has an IC50 [2] of 119 nM.

B2: Ac-S2P04-5 (Ac-CTVXI-NH2) (peptide)
peptide: Ac-CTV[thBuK]I-NH2
SMILES: CCCC(=S)NCCCC[C@H](NC(=O)[C@@H](NC(=O)[C@@H](NC(=O)[C@H](CS)NC(C)=O)[C@@H](C)O)C(C)C)C(=O)N[C@H](C(N)=O)[C@@H](C)CC
Work on B2 yielded an IC50 [2] of 191 nM.

B3: S2P07 (NH2-CTFXVPT-NH2), synthesized with N^ε-thiobutyryl-lysine (thBuK) in place of BuK (peptide)
peptide: H-CTF[thBuK]VPT-NH2
SMILES: CCCC(=S)NCCCC[C@H](NC(=O)[C@H](Cc1ccccc1)NC(=O)[C@@H](NC(=O)[C@@H](N)CS)[C@@H](C)O)C(=O)N[C@H](C(=O)N1CCC[C@H]1C(=O)N[C@H](C(N)=O)[C@@H](C)O)C(C)C
Work on B3 yielded an IC50 [2] of 101 nM.

B4: S2P04-5, truncated version of S2P04 containing only the five residues of the consensus motif (peptide)
peptide: CTV[thBuK]I-NH2
modifications: N-terminus assumed
SMILES: CCCC(=S)NCCCC[C@H](NC(=O)[C@@H](NC(=O)[C@@H](NC(=O)[C@@H](N)CS)[C@@H](C)O)C(C)C)C(=O)N[C@H](C(N)=O)[C@@H](C)CC
With B4 the “IC50, inhibition of SIRT2 (fluorogenic sirtuin substrate assay)” value [3] was 136 nM.

B5: S2P03 (NH2-CTVXTSL-NH2), synthesized with N^ε-thiobutyryl-lysine (thBuK) in place of BuK (peptide)
peptide: H-CTV[thBuK]TSL-NH2
SMILES: CCCC(=S)NCCCC[C@H](NC(=O)[C@@H](NC(=O)[C@@H](NC(=O)[C@@H](N)CS)[C@@H](C)O)C(C)C)C(=O)N[C@H](C(=O)N[C@@H](CO)C(=O)N[C@@H](CC(C)C)C(N)=O)[C@@H](C)O
In the case of B5, the IC50 [2] is reported as 68 nM.

SK(Crotonyl(E))DIWCF (also: 5-FAM conjugated, site not given here) [5-FAM-conjugated 7CrKEnl2] gave a Kd [1] of 90 nM.

B6: S2P04 (NH2-TCTVXIG-NH2), synthesized with N^ε-thiobutyryl-lysine (thBuK) in place of BuK (peptide)
peptide: H-TCTV[thBuK]IG-NH2
SMILES: CCCC(=S)NCCCC[C@H](NC(=O)[C@@H](NC(=O)[C@@H](NC(=O)[C@H](CS)NC(=O)[C@@H](N)[C@@H](C)O)[C@@H](C)O)C(C)C)C(=O)N[C@H](C(=O)NCC(N)=O)[C@@H](C)CC
B6 was tested, and the IC50 [2] was 92 nM, the “fold by which SIRT2 is inhibited more potently than SIRT1” value [4] was 2.7 fold and the “fold more potent than TB (sirtuin inhibition)” value [4] was at least 33 fold. The “fold more potent than TB (sirtuin inhibition)” value [3] was at least 33 fold, the “fold by which SIRT2 is inhibited more potently than SIRT3” value [5] was 152 fold and the “fold more potent than TB (sirtuin inhibition)” value [5] was at least 33 fold.
